Reference: patent publication US6150515, “Tat-SF: cofactor for stimulation of transcriptional elongation by HIV-1 Tat” (Massachusetts Institute of Technology, dated 2000)

Target: HIV-1 Tat, recombinant wild type Tat protein (HIV-1, UniProt P04608)
Assay: cell-based or functional assay

B1: Tat-Stimulatory Factor protein Tat-SF1 (pp140) (other)
chain: MSGTNLDGNDEFDEQLRMQELYGDGKDGDTQTDAGGEPDSLGQQPTDTPYEWDLDKKAWFPKITEDFIATYQANYGFSNDGASSSTANVEDVHARTAEEPPQEKAPEPTDARKKGEKRKAESGWFHVEEDRNTNVYVSGLPPDITVDEFIQLMSKFGIIMRDPQTEEFKVKLYKDNQGNLKGDGLCCYLKRESVELALKLLDEDEIRGYKLHVEVAKFQLKGEYDASKKKKKCKDYKKKLSMQQKQLDWRPERRAGPSRMRHERVVIIKNMFHPMDFEDDPLVLNEIREDLRVECSKFGQIRKLLLFDRHPDGVASVSFRDPEEADYCIQTLDGRWFGGRQITAQAWDGTTDYQVEETSREREERLRGWEAFLNAPEANRGLSVQILSLLRKAGPSRARHFSEHPSTSKMNAQETATGMAFEEPIDEKKFEKTEDGGEFEEGASENNAKESSPEKEAEEGCPEKESEEGCPKRGFEGSCSQKESEEGNPVRGSEEDSPKKESKKKTLKNDCEENGLAKESEDDLNKESEEEVGPTKESEEDDSEKESDEDCSEKQSEDGSEREFEENGLEKDLDEEGSEKELHENVLDKELEENDSENSEFEDDGSEKVLDEEGSEREFDEDSDEKEEEEDTYEKVFDDESDEKEDEEYADEKGLEAADKKAEEGDADEKLFEESDDKEDEDADGKEVEDADEKLFEDDDSNEKLFDEEEDSSEKLFDDSDERGTLGGFGSVEEGPLSTGSSFILSSDDDDDDI
modifications: phosphorylated by its associated kinase in the kinase reactions (gamma-32P ATP); sites not stated
- fold activation by Tat of an HIV-1 LTR-CAT reporter (pBennCAT) in HeLa cells co-transfected with pSV-Tat-SF1, relative to empty vector: 5.2 fold
